Measurements as given in patent US8563700B2, “Synergistic effects” (ImmunoGen, Inc., priority 2008, dated 2013).

Assays:
Assay type in all cases: in vivo
[1] = system: MOLP-8 human multiple myeloma cells; experiment: huN901-DM1 and thalidomide in established subcutaneous MOLP-8 multiple myeloma xenografts; conditions: SCID mice; huN901-DM1 100 μg/kg, thalidomide 200 mg/kg, as single agents or combined
Description: (§1) Mice were inoculated with human multiple myeloma tumor cell lines and allowed to become established (average tumor size of about 100 mm^3) prior to treatment. Conjugate dosing is described based on DM1 concentration. Efficacy is reported as both the % of tumor growth for treated vs. control (% T/C) and log cell kill (LCK) determined from the tumor doubling time and the tumor growth delay due to the treatment.
(§2) Tumor growth was monitored by measuring tumor size twice per week. Tumor size was calculated with the formula: length×width×height×½.

[2] = system: H929 human multiple myeloma cells; experiment: huN901-DM1 and bortezomib in H929 multiple myeloma large tumor xenografts; conditions: for activity according to NCI standards: huN901-DM1 50 μg/kg, bortezomib 0.5 mg/kg, as single agents or combined
Experimental: as §1
The anti-tumor effect of a combination of huN901-DM1 and bortezomib was evaluated in an established subcutaneous xenograft model of multiple myeloma. SCID mice (54 animals) were inoculated with H929 human multiple myeloma cells (1×10^7 cells/animal) injected subcutaneously into the right shoulder of the mice. […] Two groups of mice were treated with the single agent huN901-DM1 at DM1 doses of 50 μg/kg and 100 μg/kg, respectively (day 34 post tumor cell inoculation) administered intravenously. Two groups of mice were treated with the single agent bortezomib at a 0.5 mg/kg low dose and 1 mg/kg high dose (days 35 and 38 post tumor cell inoculation) administered intravenously. Four combination groups were evaluated, with combinations of each dose of huN901-DM1 plus low- or high-dose bortezomib using the same schedules used for single agent treated groups. A control group of animals received PBS administered intravenously (day 34 post tumor cell inoculation). Tumor growth was monitored by measuring tumor size twice per week. Tumor size was calculated with the formula: length×width×height×½.

[3] = system: OPM2 human multiple myeloma cells; experiment: huN901-DM1 and bortezomib in established subcutaneous OPM2 multiple myeloma xenografts; conditions: SCID mice
Description: as §1
The anti-tumor effect of a combination of huN901-DM1 and bortezomib (Velcade, Millennium Pharmaceuticals) was evaluated in an established subcutaneous xenograft model of multiple myeloma. SCID mice (36 animals) were inoculated with OPM2 human multiple myeloma cells (1×10^7 cells/animal) injected subcutaneously into the right shoulder of the mice. […] Two groups of mice were treated with the single agent huN901-DM1 at DM1 doses of 100 μg/kg and 200 μg/kg, respectively (day 12 post tumor cell inoculation) administered intravenously. A third group of mice was treated with the single agent bortezomib at a dose of 1 mg/kg (days 13 and 16 post tumor cell inoculation), administered intravenously. Two groups were treated with combinations of huN901-DM1 (100 μg/kg or 200 μg/kg) plus bortezomib using the same doses, schedules and administration routes used for single agent treated groups. A control group of animals received PBS administered intravenously (day 12 post tumor cell inoculation). Tumor growth was monitored by measuring tumor size twice per week. Tumor size was calculated with the formula: length×width×height×½.

[4] = system: MOLP-8 human multiple myeloma cells; conditions: Balb/c nude mice; huN901-DM1 200 μg/kg DM1 i.v. single injection day 22; melphalan 12 mg/kg i.p. single injection day 23; combination same doses
Description: as §1, §2

[5] = system: OPM2 human multiple myeloma cells; experiment: huN901-DM1 and lenalidomide in established subcutaneous OPM2 multiple myeloma xenografts; conditions: combination same doses; for LCK / T/C: SCID mice, lenalidomide 100 mg/kg i.p. days 16-20, 23-27; for LCK: huN901-DM1 200 μg/kg i.v. day 16; for T/C: huN901-DM1 200 μg/kg i.v. single injection day 16
Experimental: as §1
The anti-tumor effect of a combination of huN901-DM1 and lenalidomide was evaluated in an established subcutaneous xenograft model of multiple myeloma. SCID mice (20 animals) were inoculated with OPM2 human multiple myeloma cells (1×10^7 cells/animal) injected subcutaneously into the right shoulder of the mice. When the tumors reached about 130 mm^3 in size (16 days after tumor cell inoculation), the mice were randomly divided into four groups (5 animals per group). One group of mice was treated with the single agent huN901-DM1 (200 μg/kg, day 16 post tumor cell inoculation) administered intravenously. […] A third group was treated with a combination of huN901-DM1 plus lenalidomide using the same doses, schedules and administration routes used for single agent treated groups. A control group of animals received PBS administered intravenously (day 16 post tumor cell inoculation). Tumor growth was monitored by measuring tumor size twice per week. Tumor size was calculated with the formula: length×width×height×½.

[6] = system: MOLP-8 human multiple myeloma cells; experiment: Triple combination huN901-DM1, lenalidomide plus low-dose dexamethasone in MOLP-8 xenografts
Experimental: Lenalidomide (100 mg/kg, qd×5×2) was administered at days 1-5 and 8-12. […]
as §1
The anti-tumor effect of a triple-combination of huN901-DM1 and lenalidomide plus low-dose dexamethasone was evaluated in an established subcutaneous xenograft model of multiple myeloma. SCID mice were inoculated with MOLP-8 human multiple myeloma cells (1.5×10^7 cells/animal) injected subcutaneously into the right shoulder of the mice. […] Treatments were initiated on day 13 post inoculation, indicated as day 1 of treatment. […] A second group of mice was treated with the combination of lenalidomide/low-dose dexamethasone (lenalidomide at 100 mg/kg, administered as a suspension in 1% carboxymethylcellulose/PBS by intraperitoneal injection on days 1-5, 8-12; dexamethasone at 1.5 mg/kg, administered by subcutaneous injection on days 1 and 8). A third group was treated with the triple-combination of huN901-DM1 plus lenalidomide/dexamethasone using the same doses, schedules and administration routes used for individual treatment groups. A control group of animals received PBS administered intravenously (days 1 and 8). Tumor growth was monitored by measuring tumor size twice per week. Tumor size was calculated with the formula: length×width×height×½.

[7] = bortezomib single agent, high dose 1.0 mg/kg
[8] = huN901-DM1 200 μg/kg, lenalidomide 100 mg/kg

O=C1CCC(N2C(=O)c3ccccc3C2=O)C(=O)N1 (stereo not shown) [thalidomide, reference compound]
activity according to NCI standards [1]: inactive

CC(C)C[C@H](NC(=O)[C@H](Cc1ccccc1)NC(=O)c1cnccn1)B(O)O [bortezomib]
T/C [2, 7]: 11%
activity [2, 7]: active
tumor-free mice at day 119 [2, 7]: 1 of 6
activity according to NCI standards [2]: inactive
tumor-free mice at day 91 ([3]; bortezomib single agent 1 mg/kg i.v. days 13 and 16): no tumor-free mice

N[C@@H](Cc1ccc(N(CCCl)CCCl)cc1)C(=O)O [melphalan, reference compound]
tumor growth delay [4]: 14 days

Nc1cccc2c1CN(C1CCC(=O)NC1=O)C2=O (stereo not shown) [lenalidomide, reference compound]
LCK [5]: 0.9
T/C [5]: 28%

B1: huN901-DM1: humanized antibody N901-maytansinoid conjugate (huN901-DM1); N901 binds to CD56 (conjugate, chains of the INN, looked up)
VH: QVQLVESGGGVVQPGRSLRLSCAASGFTFSSFGMHWVRQAPGKGLEWVAYISSGSFTIYYADSVKGRFTISRDNSKNTLYLQMNSLRAEDTAVYYCARMRKGYAMDYWGQGTLVTVSS
VL: DVVMTQSPLSLPVTLGQPASISCRSSQIIIHSDGNTYLEWFQQRPGQSPRRLIYKVSNRFSGVPDRFSGSGSGTDFTLKISRVEAEDVGVYYCFQGSHVPHTFGQGTKVEIK
modifications: DM1 maytansinoid conjugate
activity ([6]; MOLP-8 tumors, doses as in Example 7): active
T/C ([6]; SCID mice, huN901-DM1 150 ng/kg, qw×2 i.v., lenalidomide 100 mg/kg i.p. days 1-5, 8-12, dexamethasone 1.5 mg/kg s.c. days 1 and 8): 33%
LCK ([6]; SCID mice, huN901-DM1 150 μg/kg, qw×2 i.v., lenalidomide 100 mg/kg i.p. days 1-5, 8-12, dexamethasone 1.5 mg/kg s.c. days 1 and 8): 0.5
regressions ([6]; huN901-DM1 alone or lenalidomide/dexamethasone groups): no regressions
activity according to NCI standards [1]: inactive
LCK [5]: 0.9
T/C [5]: 26%
activity [5, 8]: active
tumor-free mice at the end of the study [5, 8]: no tumor-free survivors
tumor growth delay [4]: 11 days
activity according to NCI standards [2]: inactive
tumor-free mice at day 91 ([3]; huN901-DM1 100 μg/kg i.v. day 12, alone or plus bortezomib 1 mg/kg i.v. days 13 and 16): 1 of 6
tumor-free mice at day 91 ([3]; huN901-DM1 200 μg/kg i.v. day 12, alone or plus bortezomib 1 mg/kg i.v. days 13 and 16): 3 of 6
